In the supplement of paper PMC11316812:
± gives the standard deviation of the averaged measurements.

Assays:
MCF7 = test: percentage of EdU-negative (G0-arrested) nuclei per well, 72 h; higher = more G0 arrest; conditions: reference: sequence is the full UniProt precursor, the tested protein was the secreted form or ectodomain
hTERT-HMEC = test: as above; conditions: reference: sequence is the full UniProt precursor, the tested protein was the secreted form or ectodomain
[1] = protein concentration 0.0225 µM
[2] = protein concentration 0.0128571 µM
[3] = protein concentration 0.128571 µM
[4] = protein concentration 0.01325 µM
[5] = protein concentration 0.1325 µM
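Also: secreted proteins added to cultured cells, EdU pulse at the end, nuclei found by Hoechst imaging, EdU status from nuclear versus surrounding ring intensity ratio, PBS as neutral control.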

MPGPSPGLRRALLGLWAALGLGLFGLSAVSQEPFWADLQPRVAFVERGGSLWLNCSTNCPRPERGGLETSLRRNGTQRGLRWLARQLVDIREPETQPVCFFRCARRTLQARGLIRTFQRPDRVELMPLPPWQPVGENFTLSCRVPGAGPRASLTLTLLRGAQELIRRSFAGEPPRARGAVLTATVLARREDHGANFSCRAELDLRPHGLGLFENSSAPRELRTFSLSPDAPRLAAPRLLEVGSERPVSCTLDGLFPASEARVYLALGDQNLSPDVTLEGDAFVATATATASAEQEGARQLVCNVTLGGENRETRENVTIYSFPAPLLTLSEPSVSEGQMVTVTCAAGAQALVTLEGVPAAVPGQPAQLQLNATENDDRRSFFCDATLDVDGETLIKNRSAELRVLYAPRLDDSDCPRSWTWPEGPEQTLRCEARGNPEPSVHCARSDGGAVLALGLLGPVTRALSGTYRCKAANDQGEAVKDVTLTVEYAPALDSVGCPERITWLEGTEASLSCVAHGVPPPDVICVRSGELGAVIEGLLRVAREHAGTYRCEATNPRGSAAKNVAVTVEYGPRFEEPSCPSNWTWVEGSGRLFSCEVDGKPQPSVKCVGSGGATEGVLLPLAPPDPSPRAPRIPRVLAPGIYVCNATNRHGSVAKTVVVSAESPPEMDESTCPSHQTWLEGAEASALACAARGRPSPGVRCSREGIPWPEQQRVSREDAGTYHCVATNAHGTDSRTVTVGVEYRPVVAELAASPPGGVRPGGNFTLTCRAEAWPPAQISWRAPPGALNIGLSSNNSTLSVAGAMGSHGGEYECAATNAHGRHARRITVRVAGPWLWVAVGGAAGGAALLAAGAGLAFYVQSTACKKGEYNVQEAESSGEAVCLNGAGGGAGGAAGAEGGPEAAGGAAESPAEGEVFAIQLTSA [Q9UMF0]
percentage of EdU-negative (MCF7; protein concentration 0.015 µM): 26.9 ± 2.4% | percentage of EdU-negative (MCF7; protein concentration 0.15 µM): 36.9 ± 2.7% | percentage of EdU-negative (hTERT-HMEC; protein concentration 0.015 µM): 5.32 ± 0.067% | percentage of EdU-negative (hTERT-HMEC; protein concentration 0.15 µM): 90.88 ± 0.53%

MGVCGYLFLPWKCLVVVSLRLLFLVPTGVPVRSGDATFPKAMDNVTVRQGESATLRCTIDDRVTRVAWLNRSTILYAGNDKWSIDPRVIILVNTPTQYSIMIQNVDVYDEGPYTCSVQTDNHPKTSRVHLIVQVPPQIMNISSDITVNEGSSVTLLCLAIGRPEPTVTWRHLSVKEGQGFVSEDEYLEISDIKRDQSGEYECSALNDVAAPDVRKVKITVNYPPYISKAKNTGVSVGQKGILSCEASAVPMAEFQWFKEETRLATGLDGMRIENKGRMSTLTFFNVSEKDYGNYTCVATNKLGNTNASITLYGPGAVIDGVNSASRALACLWLSGTLLAHFFIKF
percentage of EdU-negative (MCF7; [1]): 23.9 ± 0.79% | percentage of EdU-negative (MCF7; protein concentration 0.225 µM): 23.8 ± 1.2% | percentage of EdU-negative (hTERT-HMEC; [1]): 4.81 ± 0.74% | percentage of EdU-negative (hTERT-HMEC; protein concentration 0.225 µM): 5.39 ± 1.6%

MRRASRDYTKYLRGSEEMGGGPGAPHEGPLHAPPPPAPHQPPAASRSMFVALLGLGLGQVVCSVALFFYFRAQMDPNRISEDGTHCIYRILRLHENADFQDTTLESQDTKLIPDSCRRIKQAFQGAVQKELQHIVGSQHIRAEKAMVDGSWLDLAKRSKLEAQPFAHLTINATDIPSGSHKVSLSSWYHDRGWAKISNMTFSNGKLIVNQDGFYYLYANICFRHHETSGDLATEYLQLMVYVTKTSIKIPSSHTLMKGGSTKYWSGNSEFHFYSINVGGFFKLRSGEEISIEVSNPSLLDPDQDATYFGAFKVRDID
percentage of EdU-negative (MCF7; [1]): 28.6 ± 1.4% | percentage of EdU-negative (MCF7; protein concentration 0.225 µM): 25.6 ± 1.6% | percentage of EdU-negative (hTERT-HMEC; [1]): 4.57 ± 0.17% | percentage of EdU-negative (hTERT-HMEC; protein concentration 0.225 µM): 5.25 ± 0.66%

MGPRARPALLLLMLLQTAVLQGRLLRSHSLHYLFMGASEQDLGLSLFEALGYVDDQLFVFYDHESRRVEPRTPWVSSRISSQMWLQLSQSLKGWDHMFTVDFWTIMENHNHSKESHTLQVILGCEMQEDNSTEGYWKYGYDGQDHLEFCPDTLDWRAAEPRAWPTKLEWERHKIRARQNRAYLERDCPAQLQQLLELGRGVLDQQVPPLVKVTHHVTSSVTTLRCRALNYYPQNITMKWLKDKQPMDAKEFEPKDVLPNGDGTYQGWITLAVPPGEEQRYTCQVEHPGLDQPLIVIWEPSPSGTLVIGVISGIAVFVVILFIGILFIILRKRQGSRGAMGHYVLAERE
percentage of EdU-negative (MCF7; [2]): 25.8 ± 0.42% | percentage of EdU-negative (MCF7; [3]): 29 ± 1.8% | percentage of EdU-negative (hTERT-HMEC; [2]): 5.75 ± 0.3% | percentage of EdU-negative (hTERT-HMEC; [3]): 7.25 ± 1.1%

MQLPLALCLVCLLVHTAFRVVEGQGWQAFKNDATEIIPELGEYPEPPPELENNKTMNRAENGGRPPHHPFETKDVSEYSCRELHFTRYVTDGPCRSAKPVTELVCSGQCGPARLLPNAIGRGKWWRPSGPDFRCIPDRYRAQRVQLLCPGGEAPRARKVRLVASCKCKRLTRFHNQSELKDFGTEAARPQKGRKPRPRARSAKANQAELENAY [Q9BQB4]
percentage of EdU-negative (MCF7; [1]): 28.1 ± 1.4% | percentage of EdU-negative (MCF7; protein concentration 0.225 µM): 34 ± 2% | percentage of EdU-negative (hTERT-HMEC; [1]): 5.07 ± 1.1% | percentage of EdU-negative (hTERT-HMEC; protein concentration 0.225 µM): 18.6 ± 2.6%

MGIGRSEGGRRGAALGVLLALGAALLAVGSASEYDYVSFQSDIGPYQSGRFYTKPPQCVDIPADLRLCHNVGYKKMVLPNLLEHETMAEVKQQASSWVPLLNKNCHAGTQVFLCSLFAPVCLDRPIYPCRWLCEAVRDSCEPVMQFFGFYWPEMLKCDKFPEGDVCIAMTPPNATEASKPQGTTVCPPCDNELKSEAIIEHLCASEFALRMKIKEVKKENGDKKIVPKKKKPLKLGPIKKKDLKKLVLYLKNGADCPCHQLDNLSHHFLIMGRKVKSQYLLTAIHKWDKKNKEFKNFMKKMKNHECPTFQSVFK [Q8N474]
percentage of EdU-negative (MCF7; protein concentration 0.008 µM): 25.5 ± 1.6% | percentage of EdU-negative (MCF7; protein concentration 0.08 µM): 26.5 ± 2.3% | percentage of EdU-negative (hTERT-HMEC; protein concentration 0.008 µM): 5.94 ± 0.1% | percentage of EdU-negative (hTERT-HMEC; protein concentration 0.08 µM): 7.36 ± 1.1%

MTTWSLRRRPARTLGLLLLVVLGFLVLRRLDWSTLVPLRLRHRQLGLQAKGWNFMLEDSTFWIFGGSIHYFRVPREYWRDRLLKMKACGLNTLTTYVPWNLHEPERGKFDFSGNLDLEAFVLMAAEIGLWVILRPGPYICSEMDLGGLPSWLLQDPGMRLRTTYKGFTEAVDLYFDHLMSRVVPLQYKRGGPIIAVQVENEYGSYNKDPAYMPYVKKALEDRGIVELLLTSDNKDGLSKGIVQGVLATINLQSTHELQLLTTFLFNVQGTQPKMVMEYWTGWFDSWGGPHNILDSSEVLKTVSAIVDAGSSINLYMFHGGTNFGFMNGAMHFHDYKSDVTSYDYDAVLTEAGDYTAKYMKLRDFFGSISGIPLPPPPDLLPKMPYEPLTPVLYLSLWDALKYLGEPIKSEKPINMENLPVNGGNGQSFGYILYETSITSSGILSGHVHDRGQVFVNTVSIGFLDYKTTKIAVPLIQGYTVLRILVENRGRVNYGENIDDQRKGLIGNLYLNDSPLKNFRIYSLDMKKSFFQRFGLDKWSSLPETPTLPAFFLGSLSISSTPCDTFLKLEGWEKGVVFINGQNLGRYWNIGPQKTLYLPGPWLSSGINQVIVFEETMAGPALQFTETPHLGRNQYIK [Q8IW92]
percentage of EdU-negative (MCF7; [4]): 23.6 ± 0.28% | percentage of EdU-negative (MCF7; [5]): 27.7 ± 0.33% | percentage of EdU-negative (hTERT-HMEC; [4]): 4.88 ± 0.97% | percentage of EdU-negative (hTERT-HMEC; [5]): 9.63 ± 0.41%
